{
  "source": "paper PMC9335243",
  "biological_target": "T. laurifolia Δ6-18:0-ACP desaturase, N-11 truncation (Thunbergia laurifolia)",
  "test": "crystal structure",
  "data": [
    {"substance": "T. laurifolia Δ6-18:0-ACP desaturase, N-11 truncation (enzyme)", "values": [
      {"measurement": "stoichiometry N", "value": 2}
    ]}
  ]
}
